Experimental data taken from patent publication US10745461B2, “Pulsed introduction of low-dose RANKL as a therapy for diet-induced atherosclerosis” (Saint Louis University, priority 2015, dated 2020).
“Also recorded” adds a separate entry of the source.

Assays:
Assay type in all cases: in vivo
[1] = test system: ovariectomized mice; test: Low dose RANKL in ovariectomized mice (TcREG, serum CTX, μCT, bone formation)
Procedure: Representative FACS contour plots are shown on the first and second panel and the distribution (N=8 mice per group) is shown in the third panel. […] In these experiments (panels C-F), we used ex vivo generated TcREG as a positive control/comparator. […] Arrows are shown to emphasize the distance between dyes.
it was then determined that RANKL induces functional TcREG in ovariectomized mice. Having shown that RANKL could restore the ability of osteoclasts to induce FoxP3 expression in the presence of TNFα in vitro, we tested the ability of RANKL to induce TcREG in ovariectomized mice, as proof of principle for de-repression by increased levels of RANKL in pro-inflammatory environment. Again, a dose of RANKL that induced the highest levels of TcREG in vivo (FIG. 1A) was used. Administration of love dose RANKL to ovariectomized mice increased TcREG numbers by an average of 1.8-fold (FIG. 6A). To determine whether this increase in TcREG numbers affected bone resorption in ovariectomized mice, levels of bone resorption and bone formation rates in these (low-dose) RANKL-treated mice were measured. As it has been previously established that ex vivo generated OC-iTcREG limit bone resorption, increased bone mass, decreased activated effector T-cells, and increases bone formation and mineral apposition rates, this treatment was used as a benchmark in these experiments.
Bilateral ovariectomy was performed on 12-14 week old mice. Mice were anesthetized using 2.5% isoflurane to initiate anesthesia, and 1% for maintenance. The ovaries were accessed through a single incision in the skin, and exteriorized through muscle wall on each side. Each ovary was clamped using hemostat and removed by a single cut. Skin staples (3M) were used to close the skin incision. To minimize discomfort post-surgery, 0.025 mg/kg Buprenorphine was administered subcutaneously. Zoledronate (Selleck Chemicals) was administered at 30 μg/kg via tail vein.
(§1) Food was withdrawn 6 to 10 hours prior to bleeding. Peripheral blood (100 to 200 μL) obtained via sub-mandibular vein, was allowed to clot for 2 hours at room temperature and serum collected by spinning down the cell pellet. Serum C-terminal telopeptide of type 1 collagen (serum CTX) was measured using ELISA according to the manufacturer's instructions (Immunodiagnostic Systems, Plc)
The bones were scanned in μCT40 (Scanco Medical) at 55 kVp, 145 μA, and resolution of 16 μm. Gauss sigma of 1.2, Gauss support of 2, lower threshold of 237, and upper threshold of 1000 were used for all the analysis. Regions of interest were selected 50 slices below the growth plate of the proximal tibia to evaluate the trabecular compartment. Bone mineral density was obtained by quantitative μCT using Scanco Phantoms for calibration^49. All μCT data and bone histomorphometry data was collected and analyzed by C.Y, who was blinded to the treatment performed on the mouse samples.

[2] = test system: ovariectomized mice; test: Low-dose RANKL at various times post-OVX in C57BL/6J mice; conditions: for TcREG induction (flow-cytometry, femora): OVX C57BL/6J, two doses 0.125 mg/kg 24 hours apart, 10 days after first treatment, 2, 3, 6, 8 weeks post-OVX, 0.125 mg/kg
Procedure: FIGS. 9E-9F provide for examples of a low-dose RANKL treatment in a mouse model. All mice (C57BL/6J) were sham-operated (S) or ovariectomized (OVX) at 12 weeks of age. At time indicated after OVX, two doses of RANKL (0.125 mg/kg) were administered 24 hours apart 10 days after first treatment, mice were sacrificed. […] Representative images of the proximal tibia are shown from 3 weeks post-OVX in FIG. 9E. […] Representative images from the double-labeled femur (calcein green and alizarin red) from each group are shown. Arrows are shown to emphasize the distance between dyes. Data from 6 to 12 mice per group. For figure reference; ****=P<1×10^−4; ***=P<1×10^−3; **=P<0.01; *=P<0.05 and NS=not statistically significant.

[3] = test system: ovariectomized mice; test: Kinetics of a single low-dose RANKL treatment followed by serum CTX; conditions: twice 24 hrs apart, 2 weeks post-OVX
Procedure: as §1
To assess the kinetics of a single treatment, C57BL/6J ovariectomized mice were treated with low-dose RANKL (administered twice 24 hrs apart, 2 weeks post-OVX) and then followed by serum CTX assay. […] In FIG. 11B, to assess whether multiple treatments are effective, sham-operated (Sx) or OVX 12-week old C57BL/6J mice were treated with low-dose RANKL (0.125 mg/kg) once per month or once with the bisphosphonate Zoledronate (ZA; 3 weeks post-OVX). 120 days post-OVX peripheral blood obtained by mandible bleeds was treated to remove RBCs (BD Pharmalyse) then 1 to 3×10^6 cells were plated per well in triplicate (6 mice/group). Media was collected after 36 hours of culturing and cytokine levels quantitated by multiplexed ELISA (Millipore).

[4] = test system: aortic plaque development and bone loss; test: Ovariectomized WT or LDLR-lacking female mice on Western Diet, pulsed low dose RANKL 14 days and 6 weeks post surgery
From the text: With specific regards to determining an effect on atherosclerosis, ten-week old female mice that were either C57BL/6J (WT) or lacking low-density lipoprotein receptor (LDLR) were randomly assigned to chow (LabDiet 5L0B, containing 5% fat and 0.014% cholesterol, by weight) or a “Western Diet” that was high in fat and cholesterol (Teklad TD96121, containing 21% fat and 1.25% cholesterol). When the mice were 12 weeks old, all animals were surgically operated. Half the mice were ovariectomized (simulating menopause), and the other half had sham surgery. One group of ovariectomized mice on the Western Diet were treated with pulsed low dose RANKL (0.125 mg/kg) 14 days post surgery (14 weeks of age) and 6 weeks post surgery (18 weeks old). All mice were sacrificed at 20 weeks of age, and bone loss and aortic plaque development were analyzed.

[5] = test system: atheroma plaque; test: Male LDLR-/- mice on western diet, pulsed low-dose RANKL; conditions: 9 weeks
Procedure: FIGS. 22 and 23 extend the evaluation of the effect of pulse RANKL treatment to male LDLR mice. Surgery was, unnecessary in this case, so all mice were simply placed on the western diet at 10 weeks of age. Two weeks later one-half of the mice were treated with pulsed low-dose RANKL as contemplated elsewhere herein and the same group was treated again 6 weeks later. Time of treatment is indicated by the arrows in FIG. 22. […] All mice were sacrificed 9 weeks after the start of the experiment and plaque volumes were compared between the two groups.

B1: receptor activator of NF-κB ligand (protein, UniProt O35235 139-316, looked up)
Tumor necrosis factor ligand …: FSGAPAMMEGSWLDVAQRGKPEAQPFAHLTINAASIPSGSHKVTLSSWYHDRGWAKISNMTLSNGKLRVNQDGFYYLYANICFRHHETSGSVPTDYLQLMVYVVKTSIKIPSSHNLMKGGSTKNWSGNSEFHFYSINVGGFFKLRAGEEISIQVSNPSLLDPDQDATYFGAFKVQDID
modifications: GST tag
What does the source list for B1?
osteoclasts occupying bone [1]: fewer osteoclasts occupying bone; overall effectiveness of treatment [1]: more effective treatment than OC-iTcREG and the bisphosphonate Zoledronic acid by all measurable criteria; bone mass and bone mineral density (μCT) ([1]; comparator OC-iTcREG): more bone mass and bone mineral density relative to the OC-iTcREG treated mice; serum CTX ([1]; comparator OC-iTcREG, listed as low dose RANKL): lower levels of serum CTX compared to mice treated with OC-iTcREG; serum CTX ([1]; comparator OC-iTcREG, listed as low-dose RANKL): serum CTX levels decreased; bone formation and mineral apposition rates ([1]; comparators OC-iTcREG, Zoledronate, listed as low dose RANKL): to a greater extent than Zoledronate and ex vivo generated TcREG; also recorded: increase bone formation and mineral apposition rates than OC-iTcREG treated mice; TcREG induction in bone marrow ([1]; intraperitoneal 0.125 mg/kg): induced TcREG in the bone marrow of ovariectomized mice; increase in TcREG numbers (average) ([1]; low dose RANKL): 1.8 fold; TcREG induction (flow-cytometry, femora) ([2]; listed as Low-dose RANKL): induced TcREG; TcREG induction (flow-cytometry, femora) ([2]; listed as low-dose RANKL): can induce TcREG at two, three, six and eight-weeks post-ovariectomy; bone mass of the proximal tibia by μCT ([2]; as E20): increased bone mass of the proximal tibia; mineral apposition and bone formation rate (dynamic histomorphometry) ([2]; as E20): increased mineral apposition (left panel) and bone formation rate; proinflammatory effector cells in the femora ([2]; as E20): decreased proinflammatory effector cells in the femora; serum CTX levels ([2]; as E20): decreased serum CTX levels; time a single treatment is effective to limit bone loss / bone resorption ([3]; listed as low dose RANKL): approximately 28 days; time a single treatment is effective to limit bone loss / bone resorption ([3]; listed as low-dose RANKL): up to 30 days; plaque volume ([4]; low dose RANKL treated mice): plaque volume in low dose treated mice was also reduced; weight gain ([4]; low dose RANKL vs without treatment): less weight gain; inflammation ([4]; ovariectomized mice, compared to Zolendronate): reduced; number of atherosclerotic lesions in the aortic root ([4]; ovariectomized, western diet): the number of atherosclerotic lesions in the aortic root was reduced; osteoporosis ([4]; ovariectomized, western diet): ameliorate osteoporosis; plaque volumes [5]: plaque volumes were reduced in the treated group; weight gain [5]: weight gain in the treated mice was reduced
